Several values for one entry are separate records, joined by “and”; a condition that tells them apart may be missing. Equal values may be shown once.

From patent publication US20190367592A1 (AC IMMUNE, published 2019) come the findings set out here.

Assay [1] deals with T1, recombinant human Tau monomer, 2N4R isoform (amino acids 2-441) (human, UniProt P10636-8 2-441).
T1 construct: range 2-441; N-terminal His-tag removed with TEV protease; also called monomeric Tau
In words: SPR; Normalized Rmax post-stress (2 weeks 40 C) / pre-stress. The method, then: (§1) Briefly, IgGs in 1 mL culuture were captured using tip columns that were custom packed with 20 μL MabSelect SuRe resin (Glygen Corp & GE Healthcare). After washing with 1×PBS pH 7.4, IgGs were eluted into 160 μL of 50 mM phosphoric acid pH 3 and neutralized with 12 μL of 20×PBS pH 11. MabSelect SuRe tip columns were stripped in 0.1 M NaOH and regenerated with 1×PBS pH 7.4 for consecutive use of up to 15 times. Purified antibodies in 96-well format were normalized to 0.1 mg/ml using a Hamilton Star liquid handling robot. The “pre-stress” samples were kept at approximately 4° C. and the “post-stress” samples were incubated at 40° C. for two weeks in a PCR machine. Functional stability of the variants was compared by running surface plasmon resonance kinetics experiments with the “pre-stress” and “post-stress” antibody preps. The antibodies were assessed using a human antibody capture CM5 Series S chip generated using the GE Biacore human IgG capture kit and a Biacore T200 instrument. Antibodies diluted to 2 μg/ml were immobilized using a 15 second injection time and 10 μl/min flow rate. Binding to Tau monomer at 0 nM, 26.5 nM and 265 nM, at 25° C., using a flow rate of 40 μl/min, was monitored for a 180 second association phase followed by a 300 second dissociation phase. Samples were run in 10 mM HEPES pH7.4, 150 mM NaCl, 0.05% Tween 20 (HBSP) using a multi-cycle kinetics format. Data was analyzed using BIAevaluation software, fitting a 1:1 binding model. The resulting affinity (KD) values are shown in FIG. 8A-D. A Stability Index was also calculated, using the rationale that affinity-compromised antibodies (due for example to deamidation of key residues) are expected to contribute equally to the IgG capture level (“Ligand Level”) but to contribute less to the measured Tau binding, and that this would be reflected in the experimentally derived value for Rmax. To account for variations in the amount of each antibody captured, Rmax was normalized for the antibody capture level (as measured by “Ligand Level”, Response Units immobilized during antibody capture). Thus Normalized Rmax is calculated as the experimental Rmax (units=RU) divided by the “Ligand Level” (Evaluation output representing the RU captured during the hIgG capture step, units=RU), and Stability Index is calculated here as Normalized Rmax (post-stress) divided by Normalized Rmax (pre-stress).
A general note: In SPR one partner is held on a chip, and binding of the other changes the refractive index at the surface.

For assay [2], the target named is T1, recombinant human Tau monomer, 2N4R …. In words: SPR, captured IgG, Tau monomer analyte, 1:1 model; fit-quality column: Yes. The method, then:
as §1

Assay [3] shares this target. In words: SPR, mIgG2a captured, Tau monomer analyte, 1:1 fit. An excerpt:
Antibody heavy and light chains were constructed via gene synthesis and subcloning of the resulting DNA into murine IgG2a (heavy chain) and murine kappa (light chain) mammalian expression vectors. Antibodies were expressed in CHO or 293T cells by transient co-transfection of the heavy chain and light chain plasmids and were purified with affinity resin MabSelectSure (GE Healthcare Life Sciences). Purified recombinant antibodies were screened for binding to Tau monomer protein on a Biacore T200 surface plasmon resonance instrument using a mouse IgG capture kit and a Series S CM5 chip. Antibodies in mIgG2a format diluted in 10 mM HEPES pH7.4, 150 mM NaCl, 0.05% Tween 20 (running buffer, HBSP) were captured for 30 or 45 seconds at a concentration of 1 μg/ml (antibodies 26C1, 94B2-C1, 52F6-F11.v1, 52F6-F11.v2, 11E10-B8, 55E7-F11, 125B1-H3, 123E9-A1, 30G1-B2, 66F5-A1, 89F4-A1, 93A8-D2 and 126F11-G11) or for 70 or 150 seconds at a concentration of 0.1 μg/ml (antibodies 19H6-F7, 3A4-H4, 54C1-H11 and 37D3-H9) using a flow rate of 10 μl/min. […] Association and dissociation times were monitored for 180-480 seconds and for 300-600 seconds respectively. Antibody 37D3-H9 was selected for further analysis due to the high affinity (Table 6) and the absence of NXS/T glycosylation motifs in the CDRs.

Assay [4] shares this target. Nature of the assay: SPR screen, hIgG captured, Tau monomer analyte. The text has this:
Antibody 125B11-H3 was humanized onto VH3 and Vκ1 consensus frameworks. The heavy chain graft included murine residues at position 78 (Kabat numbering system). The Vκ1 graft included murine residues in framework positions 43 and 87. The light chain of 113F5-F7 was also humanized onto the Vκ1 framework, with additional murine residues at framework positions 43 and 87. Humanized variant heavy chains (125B11) and light chains (125B11 and 113F5-F7) were co-transfected in multiple combinations and purified in 96-well format as described above. Humanized variants were then screened for affinity for human Tau monomer using the Biacore human IgG capture kit, a Series S CM5 chip and a Biacore T200 instrument. Antibodies were diluted to 2 μg/ml and captured for 15 seconds at 10 μl/min. Association and dissociation of 0, 100 and 500 nM human Tau monomer in HBSP was monitored for 180s and 300s respectively at a flow rate of 40 μl/min. A 1:1 binding model was applied to the results (Table 9).

T1 sequence (P10636 other isoform, or with tags, fused parts or gaps limits assumed): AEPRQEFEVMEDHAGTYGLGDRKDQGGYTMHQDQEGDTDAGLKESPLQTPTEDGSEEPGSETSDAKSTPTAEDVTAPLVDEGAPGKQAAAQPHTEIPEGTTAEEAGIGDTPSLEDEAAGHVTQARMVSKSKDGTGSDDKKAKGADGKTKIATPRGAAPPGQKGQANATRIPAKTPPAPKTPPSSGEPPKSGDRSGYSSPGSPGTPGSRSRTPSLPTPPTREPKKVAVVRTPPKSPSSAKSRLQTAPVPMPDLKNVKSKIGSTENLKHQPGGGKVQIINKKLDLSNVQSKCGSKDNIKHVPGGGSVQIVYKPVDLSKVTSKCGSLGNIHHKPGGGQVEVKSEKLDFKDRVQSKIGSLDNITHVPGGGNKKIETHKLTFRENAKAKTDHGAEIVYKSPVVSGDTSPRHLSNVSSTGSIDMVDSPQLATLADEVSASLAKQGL

B1: hu37D3.v28.A20 (antibody, V domains shown)
VH: EVQLVESGGGLVQPGGSLRLSCAASGLIFRSYGMSWVRQAPGKGLEWVATINSGGTYTYYPDSVKGRFTISRDNSKNTLYLQMNSLRAEDTAVYYCANSYSGAMDYWGQGTLVTVSS
VL: DVVLTQTPLSLPVTPGQPASISCRSSQSIVHSNGNTYLEWYLQKPGQSPQLLIYKVSNRFSGVPDRFSGSGSGTDFTLKISRVEAEDVGVYYCFQGSLVPWTFGQGTKVEIK
Consider B1, for which the “Stability Index” value in assay [1] was 93%. Moreover, in assay [2], the Kd is 7.1 nM.

B2: hu37D3.v28.A28 (antibody, V domains shown)
VH: EVQLVESGGGLVQPGGSLRLSCAASGLIFRSYGMSWVRQAPGKGLEWVATINSGGTYTYYPDSVKGRFTISRDNSKNTLYLQMNSLRAEDTAVYYCANSYSGAMDYWGQGTLVTVSS
VL: DVVMTQTPLSLPVTPGQPASISCRSSQSIVHSNGNTYLEWYLQKPGQSPQLLIYKVSNRFSGVPDRFSGSGSGTDFTLKISRVEAEDVGVYYCFQGSLVPWTFGQGTKVEIK
Regarding B2, the “Stability Index” value in assay [1] worked out at 89%. For the same molecule, in assay [2], the Kd amounted to 11.4 nM.

B3: hu37D3.v28.A22 (antibody, V domains shown)
VH: EVQLVESGGGLVQPGGSLRLSCAASGLIFRSYGMSWVRQAPGKGLEWVATINSGGTYTYYPDSVKGRFTISRDNSKNTLYLQMNSLRAEDTAVYYCANSYSGAMDYWGQGTLVTVSS
VL: DVVLTQTPLSLPVTPGQPASISCRSSQSIVHSNGNTYLEWYLQKPGQSPQLLIYKVSNRFSGVPDRFSGSGSGTDFTLKISRVEAEDVGVYYCFQGSHVPWTFGQGTKVEIK
On to B3, for which, in assay [1], the “Stability Index” value turned out to be 70%. Also, the Kd in assay [2] turned out to be 27.8 nM.

B4: hu37D3.v28.A24 (antibody, V domains shown)
VH: EVQLVESGGGLVQPGGSLRLSCAASGLIFRSYGMSWVRQAPGKGLEWVATINSGGTYTYYPDSVKGRFTISRDNSKNTLYLQMNSLRAEDTAVYYCANSYSGAMDYWGQGTLVTVSS
VL: DVVMTQTPLSLPVTPGQPASISCRSSQSIVHSNGNTYFEWYLQKPGQSPQLLIYKVSNRFSGVPDRFSGSGSGTDFTLKISRVEAEDVGVYYCFQGSLVPWTFGQGTKVEIK
As to B4, the “Stability Index” value in assay [1] was determined as 95%. For the same molecule, the Kd in assay [2] was determined as 4.7 nM.

B5: hu37D3.v28.A26 (antibody, V domains shown)
VH: EVQLVESGGGLVQPGGSLRLSCAASGLIFRSYGMSWVRQAPGKGLEWVATINSGGTYTYYPDSVKGRFTISRDNSKNTLYLQMNSLRAEDTAVYYCANSYSGAMDYWGQGTLVTVSS
VL: DVVMTQTPLSLPVTPGQPASISCRSSQSIVHSNGNTYFEWYLQKPGQSPQLLIYKVSNRFSGVPDRFSGSGSGTDFTLKISRVEAEDVGVYYCFQGSHVPWTFGQGTKVEIK
Consider B5, for which the “Stability Index” value in assay [1] was determined as 78%. The Kd in assay [2] turned out to be 22.5 nM.

B6: 66F5-A1 (antibody, mouse IgG2a, V domains shown)
VH: QVQLQQSGAELVRPGASVTLSCKASGYTFIDYEMNWVKQTPVHGLEWIGAIDPENGGTAYNQKFKGKAIVTADKSSSTAYMELRSLTSEDSAVYYCSGPHFDYWGQGTTLTVSS
VL: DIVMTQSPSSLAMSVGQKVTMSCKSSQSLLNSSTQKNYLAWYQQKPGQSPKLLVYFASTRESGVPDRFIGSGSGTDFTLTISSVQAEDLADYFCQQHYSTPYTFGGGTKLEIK
Regarding B6, in assay [3], the Kd was 105 nM, the koff is 0.008 s⁻¹ and the kon worked out at 80000 M⁻¹ s⁻¹.

B7: 30G1-B2 (antibody, mouse IgG2a, V domains shown)
VH: QVQLQQSGAELVRPGASVTLSCKASGYTFTDYEMYWVKQTPVHGLEWIGAIDPETGDTAYNQKFKGKATLTADKSSNTAYMELRSLTSEDSAVYYCIRQYGNWFPYWGQGTLVTVSA
VL: DVVMTQTPLSLPVSLGDQASISCRSSQSLVHANGNTYLHWFLQKPGLSPKLLIYKVSNRFSGVPDRFSGGGSGTDFTLKITRLEAEDLGVYFCSQSTHVPFTFGSGTKLEIK
B7: in assay [3], the Kd worked out at 20 nM, the koff worked out at 0.008 s⁻¹ and the kon worked out at 400000 M⁻¹ s⁻¹.

B8: 26C1 (antibody, mouse IgG2a, V domains shown)
VH: EVHLQQSGAELVRSGASVKLSCTASGFNIKDYYMYWVKQRPEQGLEWIGWIDPENGDTEYFPKFQGKATMTADTSSKTAYLQLSSLTSEDTAVYYCNAWRARATNSALDYWGQGTSVTVSS
VL: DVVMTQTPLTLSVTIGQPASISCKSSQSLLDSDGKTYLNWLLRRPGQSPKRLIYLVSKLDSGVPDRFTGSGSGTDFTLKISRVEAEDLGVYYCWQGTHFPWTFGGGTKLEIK
notes: recombinant murine IgG2a/kappa; label without subclone
B8: in assay [3], the dissociation constant Kd turned out to be 17 nM, the koff was found to be 0.0007 s⁻¹ and the association rate constant (kon) turned out to be 40000 M⁻¹ s⁻¹.

B9: hu125B11 HC1 + hu113F5-F7 LC3 (antibody, V domains shown)
VH: EVQLVESGGGLVQPGGSLRLSCAASRFIFSNYWMNWVRQAPGKGLEWVAQIRLKSDNYATHYAESVKGRFTISRDDSKNTVYLQMNSLRAEDTAVYYCTGGTTYWGQGTLVTVSS
VL: DIQMTQSPSSLSASVGDRVTITCKASQNVGTAVAWYQQKPGKSPKLLIYSASRRFSGVPSRFSGSGSGTDFTLTISSLQPEDFATYYCQQFSTYPYTFGQGTKVEIK
With B9, in assay [4], the Kd was 61 nM.

B10: hu125B11 HC1 + 125B11 LC3 (antibody, V domains shown)
VH: EVQLVESGGGLVQPGGSLRLSCAASRFIFSNYWMNWVRQAPGKGLEWVAQIRLKSDNYATHYAESVKGRFTISRDDSKNTVYLQMNSLRAEDTAVYYCTGGTTYWGQGTLVTVSS
VL: DIQMTQSPSSLSASVGDRVTITCKASQNVGTAVAWYQQKPGKSPKLLIYSASIRYTGVPSRFSGSGSGTDFTLTISSLQPEDFATYYCQQFRTYPYTFGQGTKVEIK
As to B10, the Kd in assay [4] amounted to 21 nM.

B11: hu125B11 HC1 + 125B11 LC1 (antibody, V domains shown)
VH: EVQLVESGGGLVQPGGSLRLSCAASRFIFSNYWMNWVRQAPGKGLEWVAQIRLKSDNYATHYAESVKGRFTISRDDSKNTVYLQMNSLRAEDTAVYYCTGGTTYWGQGTLVTVSS
VL: DIQMTQSPSSLSASVGDRVTITCKASQNVGTAVAWYQQKPGKSPKLLIYSASIRYTGVPSRFSGSGSGTDFTLTISSLQPEDFATYFCQQFRTYPYTFGQGTKVEIK
Regarding B11, the Kd in assay [4] is 16 nM and 19 nM.

B12: hu125B11 HC1 + 125B11 LC2 (antibody, V domains shown)
VH: EVQLVESGGGLVQPGGSLRLSCAASRFIFSNYWMNWVRQAPGKGLEWVAQIRLKSDNYATHYAESVKGRFTISRDDSKNTVYLQMNSLRAEDTAVYYCTGGTTYWGQGTLVTVSS
VL: DIQMTQSPSSLSASVGDRVTITCKASQNVGTAVAWYQQKPGKAPKLLIYSASIRYTGVPSRFSGSGSGTDFTLTISSLQPEDFATYFCQQFRTYPYTFGQGTKVEIK
B12: in assay [4], the Kd turned out to be 20 nM.

B13: 11E10-B8 (antibody, mouse IgG2a, V domains shown)
VH: EVQLVESGGDLVKPGGSLKLSCAASGFTFRSYGMSWVRQTPDKRLEWVATISGGGSYTYYPDSVKGRFTISRDNAKNTLYLQMSSLKSEDTAMYYCAVSYDGAMDYWGQGTSVTVSS
VL: DVLMTQTPLSLPVSLGDQASISCRSSQSIVHSNGNTYLEWYLQKPGQSPKLLIYKVSNRFSGVPDRFSGSGSGTDFTLKISRVEAEDLGLYYCFQGSHVPWTFGGGTKLEIK
For the molecule B13, in assay [3], the Kd came to 108 nM, the koff came to 0.02 s⁻¹ and the kon is 200000 M⁻¹ s⁻¹.

One may read the Kd as the constant that tells how readily two partners part at equilibrium. By koff is commonly meant a measure of how fast the partners let go of each other. As usually defined, the kon is a measure of how fast the partners come together.
